# What was measured:
# Test in all cases: ELISA, gp120 on plate
# [1] = target: CH505 Env w078.6 gp120 (HIV-1)
# [2] = target: CH505 Env w030.21 gp120 (HIV-1)
# [3] = target: CH505 Env w053.22 gp120 (HIV-1)
# [4] = target: CH505 Env w100.A13 gp120 (HIV-1)
# [5] = target: CH505 Env w030.20 gp120 (HIV-1)
# [6] = target: CH505 transmitted/founder (TF) Env gp120 (HIV-1)
# [7] = target: CH505 Env w136.B5 gp120 (HIV-1)
# [8] = target: CH505 Env w160.T4 gp120 (HIV-1)
# [9] = target: CH505 Env w053.15 gp120 (HIV-1)
# [10] = target: CH505 Env w020.25 gp120 (HIV-1)
# [11] = target: CH505 Env w020.15 gp120 (HIV-1)
# [12] = target: CH505 Env w004.54 gp120 (HIV-1)
# [13] = target: CH505 Env w053.29 gp120 (HIV-1)
# [14] = target: CH505 Env w078.33 gp120 (HIV-1)
# [15] = target: CH505 Env w078.17 gp120 (HIV-1)
# [16] = target: CH505 Env w053.31 gp120 (HIV-1)
# [17] = target: CH505 Env w030.36 gp120 (HIV-1)
# [18] = target: CH505 Env w078.9 gp120 (HIV-1)
# [19] = target: CH505 Env w100.B2 gp120 (HIV-1)
# [20] = target: CH505 Env w136.B10 gp120 (HIV-1)
# [21] = target: CH505 Env w078.15 gp120 (HIV-1)
# [22] = target: CH505 Env w030.13 gp120 (HIV-1)
# [23] = target: CH505 Env w136.B2 gp120 (HIV-1)
# [24] = target: CH505 Env w136.B23 gp120 (HIV-1)
# [25] = target: CH505 Env w100.B4 gp120 (HIV-1)
# [26] = target: CH505 Env w030.17 gp120 (HIV-1)
# [27] = target: CH505 Env w020.11 gp120 (HIV-1)
Substance,log-transformed AUC [1] [log AUC],log-transformed AUC [2] [log AUC],log-transformed AUC [3] [log AUC],log-transformed AUC [4] [log AUC],log-transformed AUC [5] [log AUC],log-transformed AUC [6] [log AUC],log-transformed AUC [7] [log AUC],log-transformed AUC [8] [log AUC],log-transformed AUC [9] [log AUC],log-transformed AUC [10] [log AUC],log-transformed AUC [11] [log AUC],log-transformed AUC [12] [log AUC],log-transformed AUC [13] [log AUC],log-transformed AUC [14] [log AUC],log-transformed AUC [15] [log AUC],log-transformed AUC [16] [log AUC],log-transformed AUC [17] [log AUC],log-transformed AUC [21] [log AUC],log-transformed AUC [22] [log AUC],log-transformed AUC [27] [log AUC],other results
CH103 CD4 binding site broadly neutralizing antibody,9.9,12.2,11.6,12.9,9.5,12.6,4.3,9,11.2,10.3,11.8,9.2,10.2,11.1,11.3,13.6,9.1,10.7,12.9,9.6,log-transformed AUC [18]: 8.9 log AUC; log-transformed AUC [19]: 3.2 log AUC; log-transformed AUC [20]: 11.5 log AUC; log-transformed AUC [23]: 10.8 log AUC; log-transformed AUC [24]: 11.8 log AUC; log-transformed AUC [25]: 9.7 log AUC; log-transformed AUC [26]: 9.9 log AUC
CH103 lineage intermediate ancestor IA1 (antibody),3,11.8,8.8,12.6,5.7,10.4,9.5,13.6,9.2,8.6,9.9,6.2,8.8,8.2,9,13.4,6.7,10.9,10.5,1.8,log-transformed AUC [18]: 6.3 log AUC; log-transformed AUC [19]: 7.3 log AUC; log-transformed AUC [20]: 9.2 log AUC; log-transformed AUC [23]: 13.2 log AUC; log-transformed AUC [24]: 14.4 log AUC; log-transformed AUC [25]: 13.7 log AUC; log-transformed AUC [26]: 5.8 log AUC
CH103 lineage intermediate ancestor IA2 (antibody),4.6,11.5,9.3,12.5,6.3,10.8,9.9,13.4,9.5,9,10.5,6.8,9.2,9,9.9,13.3,7.3,11.5,11.4,2.6,log-transformed AUC [18]: 7.2 log AUC; log-transformed AUC [19]: 7.5 log AUC; log-transformed AUC [20]: 9.7 log AUC; log-transformed AUC [23]: 13.1 log AUC; log-transformed AUC [24]: 14.3 log AUC; log-transformed AUC [25]: 13.4 log AUC; log-transformed AUC [26]: 7 log AUC
CH103 lineage intermediate ancestor IA3 (antibody),–,–,1.1,–,–,11,–,–,–,8.6,10.2,5.1,–,–,–,–,–,3,9,0.8,–
CH103 lineage intermediate ancestor IA4 (antibody),–,–,0.2,–,–,10.1,–,–,–,7.3,9.1,2.8,–,–,–,–,–,1.3,7.4,0.8,–
CH103 lineage intermediate ancestor IA6 (antibody),–,–,–,–,–,9.1,–,–,–,6,7.8,2.9,–,–,–,–,–,1,6.5,0.8,–
CH103 lineage intermediate ancestor IA7 (antibody),–,–,–,–,–,9.2,–,–,–,6.4,8.2,2.3,–,–,–,–,–,0.7,4.7,0.1,–
CH103 lineage intermediate ancestor IA8 (antibody),–,–,–,–,–,5.5,–,–,–,2.4,4.2,0.5,–,–,–,–,–,–,2,0.9,–
CH103 lineage unmutated common ancestor (UCA) (antibody),–,–,–,–,–,3.5,–,–,–,0.8,1.6,–,–,–,–,–,–,–,0.3,–,–
CH104 (CH103 lineage monoclonal antibody),4.5,11.3,9.9,12.9,7.5,10.4,10.6,12.8,10.4,8.3,10.5,8.1,9.8,9,10,13.7,7.8,10.8,11.3,2.2,log-transformed AUC [18]: 6.9 log AUC; log-transformed AUC [19]: 6.1 log AUC; log-transformed AUC [20]: 8.9 log AUC; log-transformed AUC [23]: 13.2 log AUC; log-transformed AUC [24]: 14.2 log AUC; log-transformed AUC [25]: 13.1 log AUC; log-transformed AUC [26]: 7 log AUC
CH105 (CH103 lineage monoclonal antibody),3.8,10.6,9,11.4,7.1,11.2,10.5,12.2,9.4,8.2,10.8,8.3,8.5,8.9,9.5,13.5,7.5,10.1,10.5,3.6,log-transformed AUC [18]: 6.6 log AUC; log-transformed AUC [19]: 7.5 log AUC; log-transformed AUC [20]: 8.5 log AUC; log-transformed AUC [23]: 12.4 log AUC; log-transformed AUC [24]: 13.7 log AUC; log-transformed AUC [25]: 11.9 log AUC; log-transformed AUC [26]: 6.7 log AUC
CH106 (CH103 lineage monoclonal antibody),6.7,10.9,9.8,12,7.3,11.3,10.9,12.3,10.1,9.4,10.5,8.1,9.7,9.5,8.7,13.4,8.5,11,11.9,5.4,log-transformed AUC [18]: 8.3 log AUC; log-transformed AUC [19]: 7.8 log AUC; log-transformed AUC [20]: 9 log AUC; log-transformed AUC [23]: 12.7 log AUC; log-transformed AUC [24]: 13.3 log AUC; log-transformed AUC [25]: 12.6 log AUC; log-transformed AUC [26]: 8.2 log AUC
